According to US20190144550A1 (Pfizer, published 2019):

Experiments:
[1] = target: T1, 8-histidine tagged recombinant wild-type protein EGFRwt (UniProt P00533 25-645, limits assumed); test: SPR, captured by anti-human Fc, 25 C
T1 construct: not shown: 8-histidine tag

[2] = target: T2, Monomeric 8-histidine tagged human EGFRvIII extracellular domain (human, UniProt P00533 298-645); test: SPR, scFv-Fc captured by anti-human Fc, 37 C
T2 construct: Analyte in all SPR assays; not shown: 8-histidine tag
Experimental: The scFv fragment was then fused to human IgG1 Fc moiety to facilitate recombinant expression and purification. Affinities of the scFv-Fc fusion proteins were measured at 37° C. on a surface plasmon resonance Biacore™ T200 biosensor equipped with an anti-human Fc coupled CM4 sensor chip (GE Healthcare Inc., Piscataway, N.J.) as described above. scFv-Fc proteins were captured by anti-human Fc. Monomeric 8-histidine tagged human EGFRvIII extracellular domain was then injected as the analyte at 10-fold dilution series starting at 1000 nM.

[3] = target: T1, 8-histidine tagged recombinant …; test: SPR, captured by anti-mouse Fc
[4] = target: T2, Monomeric 8-histidine tagged human …; test: SPR, captured by anti-mouse Fc, 37 C
Excerpt: To generate human antibodies against EGFRvIII, transgenic AlivaMab mice (Ablexis LLC, San Francisco, Calif.) were immunized with alternating schedule of paraformaldehyde-fixed rat glioblastoma cell line expressing EGFRvIII, F98-npEGFRvIII (American Type Culture Collection, Manassas, Va.) and peptides (SEQ ID NO: 227: […]) directed to the junction region in EGFRvIII. Hybridomas were generated using standard techniques. To determine the binding affinity and specificity of these hybridomas to EGFRvIII, antibodies in culture supernatants were captured by anti-mouse Fc using Biacore™ T200 biosensor equipped with anti-mouse Fc coupled CM4 sensor chips (Biacore™ AB, Uppsala, Sweden—now GE Healthcare). Monomeric 8-histidine tagged human EGFRvIII extracellular domain was then injected as the analyte at 10-fold dilution series starting with top concentration 1000 nM. Affinity of anti-EGFRvIII antibodies towards human EGFRvIII was measured at 37° C.

[5] = target: T3, human EGFRvIII expressed on cells (human, UniProt P00533 298-1210); test: flow cytometry, F98-npEGFRvIII cells
T3 construct: the F98-npEGFRvIII line was obtained from ATCC and its construct is not described; also called F98-npEGFRvIII; F98-EGFRvIII

[6] = target: T3, human EGFRvIII expressed on cells; test: flow cytometry, F98-npEGFRvIII against F98, F98-EGFRwt and A431 cells

| binding result [1] | Kd [2] [nM] | koff [2] [s⁻¹] | kon [2] [M⁻¹ s⁻¹] | binding result [3] | Kd [4] [nM] | koff [4] [s⁻¹] | kon [4] [M⁻¹ s⁻¹] | % positive [5] [%] | MFI [5] | fold MFI on EGFRvIII expressing cell line over non-expressing cell lines [6] [fold] | Binder |
| --- | --- | --- | --- | --- | --- | --- | --- | --- | --- | --- | --- |
| no binding (tested: 1000 nM) | 22.1 | 0.00088 | 40000 | – | – | – | – | – | – | – | 42G9.LH scFv-Fc protein (Fc fusion, LH: light-chain variable domain at the N-terminus; not shown: human IgG1 Fc moiety) EVVLTQSPATLSVSPGERATLSCRASQSVRSNLAWYQQKSGQAPRLLIYGSTIRATGVPARFSGSGSGTEFTLTISSLQSEDFAVYYCQQYSDWPFTFGPGTKVDIKGGGGSGGGGSGGGGSGGGGSQVTLKESGPVLLKPTETLTLTCTVSGFSLSNPRMGVSWIRQPPGKALEWFAHIFSTDEKSLKLSLRSRLTLSKDTSKSQVVLTMTNMAPVDSATYYCARDSSNYEGYFDFWGQGTLVTVSS |
| no binding (tested: 1000 nM) | 349 | 0.038 | 110000 | – | – | – | – | – | – | – | 30D8.LH scFv-Fc protein (Fc fusion, LH: light-chain variable domain at the N-terminus; not shown: human IgG1 Fc moiety) DIVMTQSPLSLPVTPGEPASISCRSSQSLLHNKRNNYLDWFLQKPGQSPQLLIYLASNRASGVPDRFSGGGSGTDFTLKISRVEAEDVGVYYCMQAQQTPITFGQGTRLEIKGGGGSGGGGSGGGGSGGGGSEVQLVESGGGLVKPGGSLRLSCEASGFTFSDAWMSWVRQAPGKGLEWVGRIKSKTDGGTTDYVVPLNGRFIISRDDSRNTLYLQLNNLKTEDTAVYYCTTVPGSYGYWGQGTLVTVSS |
| no binding (tested: 1000 nM) | 705 | 0.04 | 57000 | – | – | – | – | – | – | – | 26B9.HL scFv-Fc protein (Fc fusion, HL: heavy-chain variable domain at the N-terminus; not shown: human IgG1 Fc moiety) EVQLVESWGVLVKPGGSLRLSCAASGFIFNNAWMSWVRQAPGKGLEWIGRIKSKSDGGTTDYAAPVKDRFTISRDDSKDTLYLQMNGLKTEDTAVYFCTTAPGGPFDYWGQGTLVTVSSGGGGSGGGGSGGGGSGGGGSDIVLTQSPLSLPVTPGEPASISCRSSQSLLHRDGFNYLDWFLQKPGQSPQLLIYLASSRASGVPDRFSGSDSGTDFTLKISRVEAEDVGVYYCMQALQTPITFGQGTRLEIK |
| no binding (tested: 1000 nM) | 225 | 0.053 | 230000 | – | – | – | – | – | – | – | 30D8.HL scFv-Fc protein (Fc fusion, HL: heavy-chain variable domain at the N-terminus; not shown: human IgG1 Fc moiety) EVQLVESGGGLVKPGGSLRLSCEASGFTFSDAWMSWVRQAPGKGLEWVGRIKSKTDGGTTDYVVPLNGRFIISRDDSRNTLYLQLNNLKTEDTAVYYCTTVPGSYGYWGQGTLVTVSSGGGGSGGGGSGGGGSGGGGSDIVMTQSPLSLPVTPGEPASISCRSSQSLLHNKRNNYLDWFLQKPGQSPQLLIYLASNRASGVPDRFSGGGSGTDFTLKISRVEAEDVGVYYCMQAQQTPITFGQGTRLEIK |
| – | – | – | – | no binding (tested: 1000 nM) | 231 | 0.0289 | 125000 | 98.5 | 4640 | – | 20G5 (antibody, V domains shown, Hybridoma supernatant (AlivaMab mouse); captured/detected via mouse Fc) VH: EVQLVESGGDLVKPGGSLRLSCAASGFTFTNAWMSWVRQAPGKGLEWVGRIKSKIDGGTTDYAAPVKGRFIISRDDSKNTLSLQMNSLKTEDTAMYYCTTAPGGPFDYWGQGSLVTVSS VL: DIVLTQSPLSLPVTPGEPASISCRSSQSLLYSDRRNYLDWFLQKPGQSPHLLIYLGSYRASGVPDRFSGSGSGTDFTLKISRVEAEDVGVYYCMQALQIPITFGQGTRLEIK |
| – | – | – | – | no binding (tested: 1000 nM) | 244 | 0.032 | 131000 | 98.6 | 5400 | ≥ 10 | 26B9 (antibody, V domains shown, Hybridoma supernatant (AlivaMab mouse); captured/detected via mouse Fc) VH: EVQLVESWGVLVKPGGSLRLSCAASGFIFNNAWMSWVRQAPGKGLEWIGRIKSKSDGGTTDYAAPVKDRFTISRDDSKDTLYLQMNGLKTEDTAVYFCTTAPGGPFDYWGQGTLVTVSS VL: DIVLTQSPLSLPVTPGEPASISCRSSQSLLHRDGFNYLDWFLQKPGQSPQLLIYLASSRASGVPDRFSGSDSGTDFTLKISRVEAEDVGVYYCMQALQTPITFGQGTRLEIK |
| – | – | – | – | no binding (tested: 1000 nM) | 353 | 0.0141 | 39900 | 97.9 | 3980 | ≥ 10 | 20E12 (antibody, V domains shown, Hybridoma supernatant (AlivaMab mouse); captured/detected via mouse Fc) VH: EVNLVESGGGLVKPGGSLRLSCEASGFTFSYAWMSWVRQAPGKGLEWVGRIKSIADGGATDYAAPVRNRFTISRDDSRNTLYLEMHSLKTEDTAVYYCTTIPGNDAFDMWGQGTMVTVSS VL: DIVLTQSPLSLSVTPGEPASISCRSSQSLLYSNGKNYLDWFLHKPGQSPQLLIYLGSNRASGVPDRFSGSGSGIDFILKISRVEAEDVGVYYCMQAQQTPITFGQGTRLEIK |
| – | – | – | – | no binding (tested: 1000 nM) | 1790 | 0.0122 | 6820 | 98.6 | 3730 | ≥ 10 | 32G8 (antibody, V domains shown, Hybridoma supernatant (AlivaMab mouse); captured/detected via mouse Fc) VH: EVNLVESGGGLVKPGGSLRLSCEASGFTFSYAWMSWVRQAPGKGLEWVGRIKSITDGGVIDYAAPVRNRCTISRDDSRNTLYLEMHSLKTEDTAVYYCTTIPGNDDFDMWGQGRMVTVSS VL: DIVLTQSPLSLSVTPGEPASISCRSSQSLLYSNGKNYLDWFLHKPGQSPQLLIYLGSNRASGVPDRFSGSGSGIDFILKISRVEAEDVGVYYCMQAQQTPITFGQGTRLEIK |
| – | – | – | – | no binding (tested: 1000 nM) | 340 | 0.0128 | 37700 | 98.5 | 4130 | ≥ 10 | 34E7 (antibody, V domains shown, Hybridoma supernatant (AlivaMab mouse); captured/detected via mouse Fc) VH: EVNLVESGGGLVKPGGSLRLSCEASGFTFSYAWMSWVRQAPGKGLEWVGRIKSINDGGATDYASPVRNRFTISRDDSRNMLYLEMHSLKTEDTAVYYCTTIPGNDAFDMWGQGTLVTVSS VL: DIVLTQSPLSLSVTPGEPASISCRSTQSLLYSNGKNYLDWFLHKPGQSPQLLIFLGSIRASGVPDRFSGSGSGIDFILKISRVEAEDVGVYYCMQAQQTPITFGQGTRLEIK |
| no binding (tested: 1000 nM) | 894 | 0.019 | 21000 | – | – | – | – | – | – | – | 20E12.HL scFv-Fc protein (Fc fusion, HL: heavy-chain variable domain at the N-terminus; not shown: human IgG1 Fc moiety) EVNLVESGGGLVKPGGSLRLSCEASGFTFSYAWMSWVRQAPGKGLEWVGRIKSIADGGATDYAAPVRNRFTISRDDSRNTLYLEMHSLKTEDTAVYYCTTIPGNDAFDMWGQGTMVTVSSGGGGSGGGGSGGGGSGGGGSDIVLTQSPLSLSVTPGEPASISCRSSQSLLYSNGKNYLDWFLHKPGQSPQLLIYLGSNRASGVPDRFSGSGSGIDFILKISRVEAEDVGVYYCMQAQQTPITFGQGTRLEIK |
| no binding (tested: 1000 nM) | 1490 | 0.013 | 8700 | – | – | – | – | – | – | – | 32G8.HL scFv-Fc protein (Fc fusion, HL: heavy-chain variable domain at the N-terminus; not shown: human IgG1 Fc moiety) EVNLVESGGGLVKPGGSLRLSCEASGFTFSYAWMSWVRQAPGKGLEWVGRIKSITDGGVIDYAAPVRNRCTISRDDSRNTLYLEMHSLKTEDTAVYYCTTIPGNDDFDMWGQGRMVTVSSGGGGSGGGGSGGGGSGGGGSDIVLTQSPLSLSVTPGEPASISCRSSQSLLYSNGKNYLDWFLHKPGQSPQLLIYLGSNRASGVPDRFSGSGSGIDFILKISRVEAEDVGVYYCMQAQQTPITFGQGTRLEIK |
| no binding (tested: 1000 nM) | 932 | 0.015 | 16000 | – | – | – | – | – | – | – | 20E12.LH scFv-Fc protein (Fc fusion, LH: light-chain variable domain at the N-terminus; not shown: human IgG1 Fc moiety) DIVLTQSPLSLSVTPGEPASISCRSSQSLLYSNGKNYLDWFLHKPGQSPQLLIYLGSNRASGVPDRFSGSGSGIDFILKISRVEAEDVGVYYCMQAQQTPITFGQGTRLEIKGGGGSGGGGSGGGGSGGGGSEVNLVESGGGLVKPGGSLRLSCEASGFTFSYAWMSWVRQAPGKGLEWVGRIKSIADGGATDYAAPVRNRFTISRDDSRNTLYLEMHSLKTEDTAVYYCTTIPGNDAFDMWGQGTMVTVSS |
| no binding (tested: 1000 nM) | 494 | 0.034 | 69000 | – | – | – | – | – | – | – | 26B9.LH scFv-Fc protein (Fc fusion, LH: light-chain variable domain at the N-terminus; not shown: human IgG1 Fc moiety) DIVLTQSPLSLPVTPGEPASISCRSSQSLLHRDGFNYLDWFLQKPGQSPQLLIYLASSRASGVPDRFSGSDSGTDFTLKISRVEAEDVGVYYCMQALQTPITFGQGTRLEIKGGGGSGGGGSGGGGSGGGGSEVQLVESWGVLVKPGGSLRLSCAASGFIFNNAWMSWVRQAPGKGLEWIGRIKSKSDGGTTDYAAPVKDRFTISRDDSKDTLYLQMNGLKTEDTAVYFCTTAPGGPFDYWGQGTLVTVSS |
